Experimental data as given in US20090099029A1, “Methods and substrates for conducting assays” (Invitrogen Corporation, priority 2005, published 2009).

B1: FGFR3 (protein)
chain: RLRSPPKKGLGSPTVHKISRFPLKRQVSLESNASMSSNTPLVRIARLSSGEGPTLANVSELELPADPKWELSRARLTLGKPLGEGCFGQVVMAEAIGIDKDRAAKPVTVAVKMLKDDATDKDLSDLVSEMEMMKMIGKHKNIINLLGACTQGGPLYVLVEYAAKGNLREFLRARRPPGLDYSFDTCKPPEEQLTFKDLVSCAYQVARGMEYLASQKCIHRDLAARNVLVTEDNVMKIADFGLARDVHNLDYYKKTTNGRLPVKWMAPEALFDRVYTHQSDVWSFGVLLWEIFTLGGSPYPGIPVEELFKLLKEGHRMDKPANCTHDLYMIMRECWHAAPSQRPTFKQLVEDLDRVLTVTSTDEYLDLSAPFEQYSPGGQDTPSSSSSGDDSVFAHDLLPPAPPSSGGSRT
modifications: left off: small tags and cut ends
B2: FLT3 (protein)
chain: HKYKKQFRYESQLQMVQVTGSSDNEYFYVDFREYEYDLKWEFPRENLEFGKVLGSGAFGKVMNATAYGISKTGVSIQVAVKMLKEKADSSEREALMSELKMMTQLGSHENIVNLLGACTLSGPIYLIFEYCCYGDLLNYLRSKREKFHRTWTEIFKEHNFSFYPTFQSHPNSSMPGSREVQIHPDSDQISGLHGNSFHSEDEIEYENQKRLEEEEDLNVLTFEDLLCFAYQVAKGMEFLEFKSCVHRDLAARNVLVTHGKVVKICDFGLARDIMSDSNYVVRGNARLPVKWMAPESLFEGIYTIKSDVWSYGILLWEIFSLGVNPYPGIPVDANFYKLIQNGFKMDQPFYATEEIYIIMQSCWAFDSRKRPSFPNLTSFLGCQLADAEEAMYQNVDGRVSECPHTYQNRRPFSREMDLGLLSPQAQVEDS
modifications: left off: small tags and cut ends
B3: IGF1R (protein)
chain: RKRNNSRLGNGVLYASVNPEYFSAADVYVPDEWEVAREKITMSRELGQGSFGMVYEGVAKGVVKDEPETRVAIKTVNEAASMRERIEFLNEASVMKEFNCHHVVRLLGVVSQGQPTLVIMELMTRGDLKSYLRSLRPEMENNPVLAPPSLSKMIQMAGEIADGMAYLNANKFVHRDLAARNCMVAEDFTVKIGDFGMTRDIYETDYYRKGGKGLLPVRWMSPESLKDGVFTTYSDVWSFGVVLWEIATLAEQPYQGLSNEQVLRFVMEGGLLDKPDNCPDMLFELMRMCWQYNPKMRPSFLEIISSIKEEMEPGFREVSFYYSEENKLPEPEELDLEPENMESVPLDPSASSSSLPLPDRHSGHKAENGPGPGVLVLRASFDERQPYAHMNGGRKNERALPLPQSSTC
modifications: left off: small tags and cut ends
B4: FGFR4 (protein)
chain: RGQALHGRHPRPPATVQKLSRFPLARQFSLESGSSGKSSSSLVRGVRLSSSGPALLAGLVSLDLPLDPLWEFPRDRLVLGKPLGEGCFGQVVRAEAFGMDPARPDQASTVAVKMLKDNASDKDLADLVSEMEVMKLIGRHKNIINLLGVCTQEGPLYVIVECAAKGNLREFLRARRPPGPDLSPDGPRSSEGPLSFPVLVSCAYQVARGMQYLESRKCIHRDLAARNVLVTEDNVMKIADFGLARGVHHIDYYKKTSNGRLPVKWMAPEALFDRVYTHQSDVWSFGILLWEIFTLGGSPYPGIPVEELFSLLREGHRMDRPPHCPPELYGLMRECWHAAPSQRPTFKQLVEALDKVLLAVSEEYLDLRLTFGPYSPSGGDASSTCSSSDSVFSHDPLPLGSSSFPFGSGVQT
modifications: left off: small tags and cut ends
B5: TTK (protein)
chain: MESEDLSGRELTIDSIMNKVRDIKNKFKNEDLTDELSLNKISADTTDNSGTVNQIMMMANNPEDWLSLLLKLEKNSVPLSDALLNKLIGRYSQAIEALPPDKYGQNESFARIQVRFAELKAIQEPDDARDYFQMARANCKKFAFVHISFAQFELSQGNVKKSKQLLQKAVERGAVPLEMLEIALRNLNLQKKQLLSEEEKKNLSASTVLTAQESFSGSLGHLQNRNNSCDSRGQTTKARFLYGENMPPQDAEIGYRNSLRQTNKTKQSCPFGRVPVNLLNSPDCDVKTDDSVVPCFMKRQTSRSECRDLVVPGSKPSGNDSCELRNLKSVQNSHFKEPLVSDEKSSELIITDSITLKNKTESSLLAKLEETKEYQEPEVPESNQKQWQSKRKSECINQNPAASSNHWQIPELARKVNTEQKHTTFEQPVFSVSKQSPPISTSKWFDPKSICKTPSSNTLDDYMSCFRTPVVKNDFPPACQLSTPYGQPACFQQQQHQILATPLQNLQVLASSSANECISVKGRIYSILKQIGSGGSSKVFQVLNEKKQIYAIKYVNLEEADNQTLDSYRNEIAYLNKLQQHSDKIIRLYDYEITDQYIYMVMECGNIDLNSWLKKKKSIDPWERKSYWKNMLEAVHTIHQHGIVHSDLKPANFLIVDGMLKLIDFGIANQMQPDTTSVVKDSQVGTVNYMPPEAIKDMSSSRENGKSKSKISPKSDVWSLGCILYYMTYGKTPFQQIINQISKLHAIIDPNHEIEFPDIPEKDLQDVLKCCLKRDPKQRISIPELLAHPYVQIQTHPVNQMAKGTTEEMKYVLGQLVGLNSPNSILKAAKTLYEHYSGGESHNSSSSKTFEKKRGKK
modifications: left off: a dimerising Fc or GST
B6: FGFR2 (protein)
chain: RMKNTTKKPDFSSQPAVHKLTKRIPLRRQVTVSAESSSSMNSNTPLVRITTRLSSTADTPMLAGVSEYELPEDPKWEFPRDKLTLGKPLGEGCFGQVVMAEAVGIDKDKPKEAVTVAVKMLKDDATEKDLSDLVSEMEMMKMIGKHKNIINLLGACTQDGPLYVIVEYASKGNLREYLRARRPPGMEYSYDINRVPEEQMTFKDLVSCTYQLARGMEYLASQKCIHRDLAARNVLVTENNVMKIADFGLARDINNIDYYKKTTNGRLPVKWMAPEALFDRVYTHQSDVWSFGVLMWEIFTLGGSPYPGIPVEELFKLLKEGHRMDKPANCTNELYMMMRDCWHAVPSQRPTFKQLVEDLDRILTLTTNEEYLDLSQPLEQYSPSYPDTRSSCSSGDDSVFSPDPMPYEPCLPQYPHINGSVKT
modifications: left off: small tags and cut ends
B7: INSRR (protein)
chain: YGKKRNRTLYASVNPEYFSASDMYVPDEWEVPREQISIIRELGQGSFGMVYEGLARGLEAGEESTPVALKTVNELASPRECIEFLKEASVMKAFKCHHVVRLLGVVSQGQPTLVIMELMTRGDLKSHLRSLRPEAENNPGLPQPALGEMIQMAGEIADGMAYLAANKFVHRDLAARNCMVSQDFTVKIGDFGMTRDVYETDYYRKGGKGLLPVRWMAPESLKDGIFTTHSDVWSFGVVLWEIVTLAEQPYQGLSNEQVLKFVMDGGVLEELEGCPLQLQELMSRCWQPNPRLRPSFTHILDSIQEELRPSFRLLSFYYSPECRGARGSLPTTDAEPDSSPTPRDCSPQNGGPGH
modifications: left off: a dimerising Fc or GST
B8: TAOK3(JIK) (protein)
chain: MRKGVLKDPEIADLFYKDDPEELFIGLHEIGHGSFGAVYFATNAHTSEVVAIKKMSYSGKQTHEKWQDILKEVKFLRQLKHPNTIEYKGCYLKEHTAWLVMEYCLGSASDLLEVHKKPLQEVEIAAITHGALHGLAYLHSHALIHRDIKAGNILLTEPGQVKLADFGSASMASPANSFVGTPYWMAPEVILAMDEGQYDGKVDIWSLGITCIELAERKPPLFNMNAMSALYHIAQNDSPTLQSNEWTDSFRRFVDYCLQKIPQERPTSAELLRHDFVRRDRPLRVLIDLIQRTKDAVRELDNLQYRKMKKILFQETRNGPLNESQEDEEDSEHGTSLNREMDSLGSNHSIPSMSVSTGSQSSSVNSMQEVMDESSSELVMMHDDESTINSSSSVVHKKDHVFIRDEAGHGDPRPEPRPTQSVQSQALHYRNRERFATIKSASLVTRQIHEHEQENELREQMSGYKRMRRQHQKQLIALENKLKAEMDEHRLKLQKEVETHANNSSIELEKLAKKQVAIIEKEAKVAAADEKKFQQQILAQQKKDLTTFLESQKKQYKICKEKIKEEMNEDHSTPKKEKQERISKHKENLQHTQAEEEAHLLTQQRLYYDKNCRFFKRKIMIKRHEVEQQNIREELNKKRTQKEMEHAMLIRHDESTRELEYRQLHTLQKLRMDLIRLQHQTELENQLEYNKRRERELHRKHVMELRQQPKNLKAMEMQIKKQFQDTCKVQTKQYKALKNHQLEVTPKNEHKTILKTLKDEQTRKLAILAEQYEQSINEMMASQALRLDEAQEAECQALRLQLQQEMELLNAYQSKIKMQTEAQHERELQKLEQRVSLRRAHLEQKIEEELAALQKERSERIKNLLERQEREIETFDMESLRMGFGNLVTLDFPKEDYR
modifications: left off: a dimerising Fc or GST
B9: FLT1(VEGFR1) (protein)
chain: RKMKRSSSEIKTDYLSIIMDPDEVPLDEQCERLPYDASKWEFARERLKLGKSLGRGAFGKVVQASAFGIKKSPTCRTVAVKMLKEGATASEYKALMTELKILTHIGHHLNVVNLLGACTKQGGPLMVIVEYCKYGNLSNYLKSKRDLFFLNKDAALHMEPKKEKMEPGLEQGKKPRLDSVTSSESFASSGFQEDKSLSDVEEEEDSDGFYKEPITMEDLISYSFQVARGMEFLSSRKCIHRDLAARNILLSENNVVKICDFGLARDIYKNPDYVRKGDTRLPLKWMAPESIFDKIYSTKSDVWSYGVLLWEIFSLGGSPYPGVQMDEDFCSRLREGMRMRAPEYSTPEIYQIMLDCWHRDPKERPRFAELVEKLGDLLQANVQQDGKDYIPINAILTGNSGFTYSTPAFSEDFFKESISAPKFNSGSSDDVRYVNAFKFMSLERIKTFEELLPNATSMFDDYQGDSSTLLASPMLKRFTWTDSKPKASLKIDLRVTSKSKESGLSDVSRPSFCHSSCGHVSEGKRRFTYDHAELERKIACCSPPPDYNSVVLYSTPPI
modifications: left off: a dimerising Fc or GST
B10: TAOK2(TAO1) (protein)
chain: MPAGGRAGSLKDPDVAELFFKDDPEKLFSDLREIGHGSFGAVYFARDVRNSEVVAIKKMSYSGKQSNEKWQDIIKEVRFLQKLRHPNTIQYRGCYLREHTAWLVMEYCLGSASDLLEVHKKPLQEVEIAAVTHGALQGLAYLHSHNMIHRDVKAGNILLSEPGLVKLGDFGSASIMAPANSFVGTPYWMAPEVILAMDEGQYDGKVDVWSLGITCIELAERKPPLFNMNAMSALYHIAQNESPVLQSGHWSEYFRNFVDSCLQKIPQDRPTSEVLLKHRFVLRERPPTVIMDLIQRTKDAVRELDNLQYRKMKK
modifications: left off: a dimerising Fc or GST

Test system: kinases of Table 6 on Myelin Basic Protein (MBP)
Assay: Kinase assay using MBP substrate, ProQ Diamond stain (Table 6)
Format: biochemical
Settings: kinase printed on MBP-coated slide; 20 uM ATP, 30° C.; ProQ Diamond Microarray Stain; graded Strong/Weak/Negative
In short: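 Reactions ran at 30° C. with 20 uM ATP, 4 mM MgCl2 and 5% DMSO in HEPES pH 7.5, inhibitor added or omitted. Kinases had been arrayed onto slide-bound dephosphorylated bovine MBP; phospho-signal read after ProQ Diamond staining.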

Molecule	MBP Kinase Activity
B1	Strong
B2	Strong
B3	Strong
B4	Strong
B5	Negative
B6	Strong
B7	Negative
B8	Strong
B9	Strong
B10	Strong
